Values belong to the binder of their own block, whether it stands above or below them.
B3: CD99 endogenously expressed on cells (Jurkat, KOPT-K1) (receptor)
chain: DGGFDLSDALPDNENKKPTAIPKKPSAGDDFDLGDAVVDGENDDPRPPNPPKPMPNPNPNHPSSSGSFSDADLADGVSGGEGKGGSDGGGSHRKEGEEADAPGVIPGIVGAVVVAVAGAISSFIAYQKKKLCFKENAEQGEVDMESHRNANAEPAVQRTLLEK
modifications: O-linked glycosylation (natural, on cells)
notes: also called endogenously expressed CD99; CD99 on cells

Assays:
[1] = molecular target: T1, CD99 peptide containing the 10A1 epitope, Ac-GENDDPRPPNPPKPM-amide (human); assay: X-ray crystal structure of the complex, 3.10 Å
T1 construct: Synthetic peptide (New England Peptide); also called residues 62-76
T1 peptide: Ac-GENDDPRPPNPPKPM-NH2

[2] = molecular target: B3; assay: cell-based or functional assay
[3] = molecular target: B3; assay: flow cytometry titration on KOPT-K1 cells, anti-Fab secondary antibody (FIG. 3B)
[4] = molecular target: T2, tetravalent SAV-10A1 Fab complex (A4 streptavidin with biotinylated 10A1 Fab) (UniProt P22629 37-163, limits assumed, biotin on the C-terminal AviTag of the Fab heavy chain); assay: flow cytometry titration on KOPT-K1 cells (FIG. 4C)
T2 construct: also called tetravalent SAV-Fab complex; not shown: N-terminal 6xHis tag
T2 sequence (P22629 37-163 limits assumed, one chain of several): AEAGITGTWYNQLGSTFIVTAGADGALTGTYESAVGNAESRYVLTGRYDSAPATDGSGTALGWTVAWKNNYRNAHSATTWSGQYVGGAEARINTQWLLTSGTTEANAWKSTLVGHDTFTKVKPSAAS

- binding result [1]: binds
B1: 10A1 Fab (Fab, V domains shown)
VH: QVQLQQSGPVLVKPSQTLSLTCAISGDSISSDTTAWSWIRRSPSRGLEWLGWTYYRSKWFNYYAVSVKGRVTINPDTSKNQFSLQLSSVTPEDTAVYYCARGNGNGGMDVWGQGTTVTVSS
VL: SYVLTQPASASVSPGQTARITCSGDALPKQYAYWYQQKPGQAPVLVIFKDSERPSGVPERFSGSSSGTTVTLTISGAQAEDEADYYCQSVDNSGFYQVFGGGTQLTVL
notes: Fab made in E. coli by attaching VH and VL to CH1 and CL; also called 10A1 in the Fab format; monovalent 10A1

- maximum fluorescence intensity relative to the bivalent and dodecavalent antibodies [3]: ~0.5 fold
B2: 10A1 IgG-HCscFv (antibody)
heavy: QVQLQQSGPVLVKPSQTLSLTCAISGDSISSDTTAWSWIRRSPSRGLEWLGWTYYRSKWFNYYAVSVKGRVTINPDTSKNQFSLQLSSVTPEDTAVYYCARGNGNGGMDVWGQGTTVTVSSASTKGPSVFPLAPSSKSTSGGTAALGCLVKDYFPEPVTVSWNSGALTSGVHTFPAVLQSSGLYSLSSVVTVPSSSLGTQTYICNVNHKPSNTKVDKKVEPKSCDKTHTCPPCPAPEAAGGPSVFLFPPKPKDTLMISRTPEVTCVVVDVSHEDPEVKFNWYVDGVEVHNAKTKPREEQYNSTYRVVSVLTVLHQDWLNGKEYKCKVSNKALGAPIEKTISKAKGQPREPQVYTLPPSREEMTKNQVSLTCLVKGFYPSDIAVEWESNGQPENNYKTTPPVLDSDGSFFLYSKLTVDKSRWQQGNVFSCSVMHEALHNHYTQKSLSLSPGKSSGSSGSSSSSGSSSQVQLQQSGPVLVKPSQTLSLTCAISGDSISSDTTAWSWIRRSPSRGLEWLGWTYYRSKWFNYYAVSVKGRVTINPDTSKNQFSLQLSSVTPEDTAVYYCARGNGNGGMDVWGQGTTVTVSSGSSSSSSGSSGSSSSSYVLTQPASASVSPGQTARITCSGDALPKQYAYWYQQKPGQAPVLVIFKDSERPSGVPERFSGSSSGTTVTLTISGAQAEDEADYYCQSVDNSGFYQVFGGGTQLTVL
light: SYVLTQPASASVSPGQTARITCSGDALPKQYAYWYQQKPGQAPVLVIFKDSERPSGVPERFSGSSSGTTVTLTISGAQAEDEADYYCQSVDNSGFYQVFGGGTQLTVLRTVAAPSVFIFPPSDEQLKSGTASVVCLLNNFYPREAKVQWKVDNALQSGNSQESVTEQDSKDSTYSLSSTLTLSKADYEKHKVYACEVTHQGLSSPVTKSFNRGEC
notes: Human IgG1 LALA-PG with the 10A1 scFv appended by a linker to the C-terminus of each heavy chain; Valency of four; also called 10A1 HCscFv; 10A1 HC-scFv
- IC50 of cytotoxicity (Annexin V, KOPT-K1 cells, 18 hours) [2]: 82 nM Fv

Binder: B3
- binding result [4]: binds
